As usually defined, the Kd is the constant that tells how readily two partners part at equilibrium. A lower Kd goes with a tighter complex.

In this data set the target is IAP-PLAP alkaline phosphatase heterodimer (Homo sapiens (Human), UniProt P09923;P05187 20-503;23-506, GPI-anchored, glycosylated). Briefly: flow; LoVo cells, binding buffer, 4 C. The settings on record: copies: 1;1; label: FITC or AF647.
Chain of IAP-PLAP alkaline phosphatase heterodimer (P09923 20-503, chain 1 of 2): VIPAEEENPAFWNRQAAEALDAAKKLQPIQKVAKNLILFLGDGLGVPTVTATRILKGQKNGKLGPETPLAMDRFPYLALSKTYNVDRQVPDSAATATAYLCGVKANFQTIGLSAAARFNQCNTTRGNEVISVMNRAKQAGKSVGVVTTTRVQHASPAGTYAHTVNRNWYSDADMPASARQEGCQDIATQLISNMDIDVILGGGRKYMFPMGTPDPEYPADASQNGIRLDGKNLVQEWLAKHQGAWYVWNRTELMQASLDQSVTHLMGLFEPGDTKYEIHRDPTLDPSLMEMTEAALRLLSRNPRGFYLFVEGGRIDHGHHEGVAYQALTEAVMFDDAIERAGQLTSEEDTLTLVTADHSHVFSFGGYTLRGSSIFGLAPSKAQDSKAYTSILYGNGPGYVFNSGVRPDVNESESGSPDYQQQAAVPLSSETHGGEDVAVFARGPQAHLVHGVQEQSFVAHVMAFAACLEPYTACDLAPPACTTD
Chain of IAP-PLAP alkaline phosphatase heterodimer (P05187 23-506, chain 2 of 2): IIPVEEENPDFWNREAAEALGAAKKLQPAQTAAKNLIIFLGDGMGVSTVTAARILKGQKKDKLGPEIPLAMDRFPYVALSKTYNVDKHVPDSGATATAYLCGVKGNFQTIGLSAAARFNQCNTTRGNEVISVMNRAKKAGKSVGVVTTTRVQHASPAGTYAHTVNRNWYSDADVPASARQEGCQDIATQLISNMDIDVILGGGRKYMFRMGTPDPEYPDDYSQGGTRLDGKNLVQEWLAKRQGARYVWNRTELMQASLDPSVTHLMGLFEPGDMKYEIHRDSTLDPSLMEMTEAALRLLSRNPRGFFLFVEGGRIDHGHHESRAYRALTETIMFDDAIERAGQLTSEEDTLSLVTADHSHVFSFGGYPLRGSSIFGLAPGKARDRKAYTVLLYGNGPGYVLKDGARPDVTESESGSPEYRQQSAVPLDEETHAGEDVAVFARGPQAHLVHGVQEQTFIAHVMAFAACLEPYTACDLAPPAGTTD

In turn, TAGGGGTCGGTGTGGGTGGTTATGATTGGC (ssDNA) [BG2c] displayed an equilibrium dissociation constant (Kd) of 9.3 ± 1.6 nM. Molecule TAAAAAATAGGGGTCGGTGTGGGTGGTTATGATTGGCTTTTTTA (ssDNA) [BG4] registered a Kd of 11.5 ± 2.3 nM.

The values above are taken from paper PMC6548965, “Aptameric Probe Specifically Binding Protein Heterodimer Rather Than Monomers”.
